Test results: publication PMC7588053, “Cholesterol oxidase from Rhodococcus erythropolis with high specificity toward β-cholestanol and pytosterols” (PLoS ONE, 2020)

Substrate: CC(C)CCC[C@@H](C)[C@H]1CC[C@H]2[C@@H]3CC=C4C[C@@H](O)CC[C@]4(C)[C@H]3CC[C@]12C
Assay: purified protein
Assay type: biochemical, Rhodococcus erythropolis
Settings: O2 as co-substrate, 0-1 mM cholesterol, 50 mM sodium phosphate pH 7.0, 64 mM sodium cholate, 0.34% Triton X-100, 30°C

B1: ChoRII (Rhodococcus erythropolis PR4) (protein)
chain: VPWGSASTIAPPPGFPSDIPLSQQAYANWSREIMLESVWTATARHSDDVVTLANWAFDNGYTVRAKGTMHGWSPLTVVPGAPSDRVLLVDTMANLNSVVVQHGTPATVTAGAGASIEAILTALEREGLGWANAPAIGELSIAGALAIGAHGATYPAVGETITPGQSYGSLSNLITEITVVAWDEGRNRYGLKTFHRSDDEITAFLTHLGRTFVTSVTLQAGENYRLRCRSFTDIPWQELFAAPGSPGRTYESFVEKSGRVEAIWFPFTQTPWLKVWTPTPVKPPESREVSGPYNYFFSDAIPEEVTTPLGMVAQGLQAATPLFGASQFGAVAAGLALTDTDDLWGWSKDVLFYLRHTTLRVVAGGGAVITKRSNIGRVVHEMTSWLNERMTHYASLGQYPVNMPFEVRLCGVDDSGEVLVDSAGVPDLSAVRPRADRQDWDTAIWMNVVSIPGTAGLPAFLREMERWMVANYSGDYATFRPEWSKGWAFTDQAAYQDDEFLTSTVPATFRAGGDGNWDFALATLDEHDPHRVFSNTFIDRVLPPS
notes: predicted mature enzyme, Tat signal peptide removed (Val-45 given, but 545 aa given would mean start at 44), C-terminal 6xHis kept, pET-21b(+), E. coli Rosetta (DE3) pLysS; precursor 588 aa, mature 59,369 Da; VAO family flavoenzyme (FAD)
Protein B1 has a Km of 22.1 ± 0.3 µM, a Vmax of 0.57 µmol/min/mg and a kcat of 0.61 ± 0.11 s⁻¹. It also gave a kcat/Km of 30000 ± 10000 M⁻¹ s⁻¹.

B2: ChoRI (Rhodococcus erythropolis PR4) (protein)
chain: VPAGSSGSAGGPVSTLTPPPAFPEGIALYQQAYQNWSKEIMLDAIWTCSPKTPEDVVRLANWGHANGYTIRPRGAMHGWTPLTIVNGAPVDKVILADTTVHLTGVSVNAGGSPATVTAGPGATLDAITTALQAQGLGFANLPAPGVLTIAGCLAVDAHGAALPAEGEAHVPGQTFGSLSNLVTSLTAVVWNGSEYALETYARSDAAIKPLLTHLGRTFLTSVTLQAAPNYRMRCVSHTDIGWQELFGARGASGRTFEKFVRENGRAEAIWYPFTERPWMKVWSLAPTKPPFSREVTGPYNYIFSDNLPEPVTDMIGQINAGNPGIAPAFGQIMYATTVAGLAATFSNDLWGWSKDVQFYIRATTLRLTEGGGAVITSRANIGQVIHDFTQWFNGRMEYYRSIGQFPLNGPVEIRCCGLDQPSDVEVDSAGAPTISAMRPRPDHPEWDTAIWLNVLGVPGTPGMFAFYREMEQWMRNHYNNNDATFRPEWSKGWAFGPDKPYTDAPIITQGLPQTYRDGVPSSDNWDTANAAYNALDPHKVFSNTFLDQLLP
notes: predicted mature enzyme, Tat signal peptide removed (from Val-37), C-terminal 6xHis kept, pET-21b(+), E. coli Rosetta (DE3) pLysS; precursor 587 aa, mature 551 aa, 59,590 Da; VAO family flavoenzyme (FAD)
Protein B2 has a Km of 22.6 ± 0.5 µM, a Vmax of 6.4 µmol/min/mg and a kcat of 6.8 ± 0.3 s⁻¹. It also gave a kcat/Km of 300000 ± 10000 M⁻¹ s⁻¹.
